Data published in US20250154215A1, “PHARMACEUTICAL COMPOSITION FOR TREATING COLITIS OR COLORECTAL CANCER COMPRISING COLON-TARGETED S100A8/A9-DERIVED SPECIFIC PEPTIDE” (Industry-University Cooperation Foundation Hanyang …, priority 2023, published 2025).
Entries after “also recorded” stand apart in the source; their conditions may differ.

Legend:
BMDMs = type: cell-based, mouse
Protocol: FIGS. 5A and 5B show the drug-like properties of rCT-S100A8/A9. […] Bacteria-purified 6×His-rCT-S100A8/9, rVehicle or rCT was analyzed by Coomassie staining or IB using αHis (bottom, left). BMDMs were incubated with rVehicle, rCT, or rCT-S100A8/9 for the indicated times and at the indicated concentrations, and then cell viability was measured by MTT assay (bottom, right). […] HLM, human liver microsomes; CYP, cytochrome […], arrival time; AUClast, total area under the plasma concentration-time curve from time 0 to the time of the last measurement; Cmax, maximum plasma concentration;

[1] = DSS-induced acute colitis mouse model; type: in vivo, mice
Protocol: (§1) DSS-induced acute or chronic colitis and AOM/DSS CRC mouse models were prepared using 6-week-old C57BL/6 female mice (Samtako Bio, Osan, Korea). To assess the induction of acute colitis, mice were exposed ad libitum to 3% (w/v) dextran sodium sulfate (molecular weight: 36-50 kDa, MP Biomedicals, Santa Ana, CA, USA) dissolved in drinking water. The mouse models are illustrated in FIGS. 7A, 5E, and 6A. DSS solutions were prepared every two days. […] The humane endpoint for weight loss (requiring euthanasia) was 20% (compared to the original body weight of an animal). Without an approved exception request, body weight loss could not exceed 20%.
(§2) The clinical score of colitis was obtained by measuring body weight, fecal occult blood or total blood loss, and stool consistency every other day during the induction of colitis. The clinical score were assessed by two trained investigators who were randomly selected. For immunohistochemical analysis of tissue sections, mouse distal colon tissues were fixed in 10% formalin and embedded in paraffin. Paraffin sections ([…]) were cut and stained with H&E. Histopathological scoring was performed by a certified pathologist (Min-Kyung Kim, Department of Pathology, Kim Min-Kyung Pathology Clinic, Seoul, Korea) who scored each organ section independently without prior knowledge of the treatment group.
The therapeutic efficacy of rCT-S100A8/A9 on DSS-induced acute colitis in mice was evaluated. After colitis was induced by DSS, the mice were intraperitoneally injected with rCT-S100A8/A9 (50 μg/kg) once daily for 6, 7, or 8 days, and sacrificed on day 12 to evaluate the effect of treatment frequency (FIG. 7A, top). […] Next, the length of the colon, which is an indicator of colitis, was evaluated.

[2] = DSS-induced chronic colitis mouse model; type: in vivo, mice
Protocol: as §1, §2
Next, the therapeutic effect of rCT-S100A8/A9 on chronic colitis was confirmed. Chronic DSS colitis was induced by three cycles of DSS+water combination, and intraperitoneal rCT-S100A8/A9 injection was performed once a day for three consecutive days of DSS administration in each cycle.

[3] = tested on: OxaR CRC cells (HT29, HCT116 and SW480); test: WST-8-based cell viability assay in parental and drug-resistant CRC cell lines
Source text: To establish a CRC cell model resistant to oxaliplatin, doxorubicin, or 5-FU, HT29, HT116, and SW480 cells were exposed to progressively increasing concentrations of oxaliplatin, doxorubicin, or 5-FU. The established oxaliplatin, doxorubicin, and 5-FU resistant cells were named OxaR, DoxR, and 5-FuR cells, respectively.
To confirm the inhibitory effect of rCT-S100A8/A9 on oxaliplatin resistance, the present inventors performed a water-soluble tetrazolium-8 (WST-8)-based cell viability assay using parental cells of three CRC cell lines, HT29, HCT-116 and SW480, and their corresponding oxaliplatin-resistant (OxaR) cell lines. OxaR CRC cells (HT29, HCT116 and SW480) were established by long-term exposure of CRC cells to oxaliplatin as described in Example 1.

[4] = parameters: species or system BALB/c mice; conditions: mouse, in vivo
Protocol: FIGS. 12A-12E show biological effects of rCT-S100A8/9 in tumor-bearing mice. […] Each vertical bar represents the mean±SD of cell viability at each dose. Data is shown as the mean±SD of six experiments. […] HCT116 cells were injected subcutaneously into the flanks of BALB/c mice as described in the Methods section. Mice were administered one or two intraperitoneal doses and sacrificed on day 5. Their expression was assessed by IB in various organs of mice. WCLs were used for IB including αActin. Data is representative of four independent experiments with similar results. […] E-cadherin, N-cadherin, and β-catenin staining of the tumors. […] Mice were immunized by each route (i.v. or i.p.) every 3 days, and blood was collected on day 40. IgG levels specific for rCT-S100A8/9 or ovalbumin (OVA) were measured using ELISA. Values represent the mean optical density (OD) and standard deviation at 450 nm. Each group included five mice. […] Serum cytokine levels were measured 30 days after administration. […]
(§3) A major concern with protein therapeutics derived from endogenous human proteins is that they may induce strong anti-therapeutic antibody responses and stimulate undesirable immune responses. […] Therefore, the immunogenicity of rCT-S100A8/A9 was assessed by measuring the production of anti-rCT-S100A8/A9 antibodies in mice immunized with the peptide according to the present invention. […]

[5] = parameters: species or system BALB/c mice; conditions: mouse, in vivo; remark: listed apart in the source
Protocol: FIGS. 12A-12E show biological effects of rCT-S100A8/9 in tumor-bearing mice. […] Each vertical bar represents the mean±SD of cell viability at each dose. Data is shown as the mean±SD of six experiments. […] HCT116 cells were injected subcutaneously into the flanks of BALB/c mice as described in the Methods section. Mice were administered one or two intraperitoneal doses and sacrificed on day 5. Their expression was assessed by IB in various organs of mice. WCLs were used for IB including αActin. Data is representative of four independent experiments with similar results. […] E-cadherin, N-cadherin, and β-catenin staining of the tumors. […] IgG levels specific for rCT-S100A8/9 or ovalbumin (OVA) were measured using ELISA. […] Serum cytokine levels were measured 30 days after administration. […]
Cytokine content was analyzed in cell culture supernatants and mouse sera using the BD OptEIA ELISA set (BD Pharmingen) to detect TNF-α, IL-6, IL-1β, and IL-18. […]
as §3

[6] = vs rVehicle or rCT-treated group

B1: TWYKIAFQRNRKTWYKIAFQRNRKTWYKIAFQRNRKTWYKIAFQRNRKTWYKIAFQRNRKGGFLVIKGGAHKSHKGGITIITFGGGHHGGFLVIKGGAHKSHKGGITIITFGGGHHGGFLVIKGGAHKSHKGGITIITFGGGHHGG (protein)
chain: TWYKIAFQRNRKTWYKIAFQRNRKTWYKIAFQRNRKTWYKIAFQRNRKTWYKIAFQRNRKGGFLVIKGGAHKSHKGGITIITFGGGHHGGFLVIKGGAHKSHKGGITIITFGGGHHGGFLVIKGGAHKSHKGGITIITFGGGHHGG
modifications: N-terminal 6xHis tag
For B1, the cell viability (BMDMs) was “no significant effect on cell viability”, the survival rate ([1]; 50 μg/kg i.p. once daily, 3% DSS) was “significantly increased” and the “colon damage (H&E staining)” value ([1]; 3% DSS acute colitis) was “reduced according to the frequency of rCT-S100A8/A9 treatment; also recorded: alleviated”. The colon length ([1]; 3% DSS acute colitis) was “recovered in proportion to the number of rCT-S100A8/A9 treatments”, the “levels of pro-inflammatory cytokines (TNF-α, IL-1β, IL-6, IL-18) and MPO activity in colonic homogenates” value ([1]; DSS colitis) was “significantly reduced; also recorded: successfully reduced the secretion of IL-1β and IL-18” and the “TLR4 (or RAGE)-S100A8 (or S100A9) and NLRP3-ASC interactions in colon” value ([1]; colon co-IP, DSS treatment) was “decreased”. For the same molecule, the body weight loss [1, 6] was “less body weight loss”, the colitis scores [1, 6] was “lower colitis scores” and the “colon damage (H&E staining)” value ([2]; 2.5% DSS chronic colitis) was “decreased; also recorded: alleviated”. The colon length ([2]; 2.5% DSS chronic colitis) was “recovered”, the survival rates ([2]; DSS-induced chronic colitis) was “significantly increased” and the body weight loss ([2]; i.p. once a day for three consecutive days per DSS cycle) was “significantly reduced body weight loss”. The “macrophage polarization (M1/M2 markers)” value ([2]; macrophages and colonic lysates, real-time PCR) was “not affected”, the “efficacy in doxorubicin-resistant (DoxR) and 5-fluorouracil-resistant (5-FuR) CRC cells” value ([3]; 24 h cell viability) was “exhibited efficacy against multidrug resistance” and the “cell viability of OxaR CRC cells” value ([3]; HT29, HCT116, SW480 OxaR, 24 hours) was “reduced the viability of OxaR CRC cells”. For the same molecule, the “production of specific anti-rCT-S100A8/A9 antibodies” value [4] was “negligible compared to that induced by ovalbumin” and the “production of pro-inflammatory cytokines” value [5] was “negligible”.
